Patent US20210388081A1 (Memorial Sloan Kettering, published 2021)

Assays:
[1] = biological target: T1, FcRL6, overexpressed on 3T3 cells (UniProt Q6DN72 20-434, limits assumed); test: phage clone on 3T3-FcRL6 cells
T1 construct: whole, on cells
T1 sequence (looked up): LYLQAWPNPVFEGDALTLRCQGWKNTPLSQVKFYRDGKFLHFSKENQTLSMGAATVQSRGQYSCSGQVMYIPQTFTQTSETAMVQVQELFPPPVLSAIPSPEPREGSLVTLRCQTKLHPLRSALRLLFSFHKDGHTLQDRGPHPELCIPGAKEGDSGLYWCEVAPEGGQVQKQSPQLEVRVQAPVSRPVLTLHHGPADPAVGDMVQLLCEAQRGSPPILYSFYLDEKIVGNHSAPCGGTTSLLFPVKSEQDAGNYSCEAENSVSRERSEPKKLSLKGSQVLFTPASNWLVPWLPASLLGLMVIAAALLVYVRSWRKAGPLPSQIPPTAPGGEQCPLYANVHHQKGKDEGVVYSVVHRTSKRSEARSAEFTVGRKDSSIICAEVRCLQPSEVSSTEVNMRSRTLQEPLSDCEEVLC

[2] = biological target: T2, FcRL2, overexpressed on 3T3 cells (UniProt Q96LA5 20-508, limits assumed); test: phage clone on 3T3-FcRL2 cells
T2 construct: whole, on cells
T2 sequence (looked up): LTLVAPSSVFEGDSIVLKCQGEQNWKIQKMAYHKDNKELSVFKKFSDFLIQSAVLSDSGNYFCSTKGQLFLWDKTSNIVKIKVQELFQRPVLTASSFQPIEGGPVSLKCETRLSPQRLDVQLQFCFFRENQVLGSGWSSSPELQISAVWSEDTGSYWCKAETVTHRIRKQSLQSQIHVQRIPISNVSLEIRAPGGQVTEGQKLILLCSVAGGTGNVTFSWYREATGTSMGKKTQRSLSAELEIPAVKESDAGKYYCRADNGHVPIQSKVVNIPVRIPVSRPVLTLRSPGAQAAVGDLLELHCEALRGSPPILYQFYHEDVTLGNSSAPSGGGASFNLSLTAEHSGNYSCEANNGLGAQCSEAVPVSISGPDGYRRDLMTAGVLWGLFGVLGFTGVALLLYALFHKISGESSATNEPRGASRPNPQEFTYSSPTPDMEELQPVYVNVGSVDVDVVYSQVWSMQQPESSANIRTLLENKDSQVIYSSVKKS

[3] = biological target: T3, FcRL3, overexpressed on 3T3 cells (UniProt Q96P31 18-734, limits assumed); test: phage clone on 3T3-FcRL3 cells
T3 construct: whole, on cells
T3 sequence (looked up): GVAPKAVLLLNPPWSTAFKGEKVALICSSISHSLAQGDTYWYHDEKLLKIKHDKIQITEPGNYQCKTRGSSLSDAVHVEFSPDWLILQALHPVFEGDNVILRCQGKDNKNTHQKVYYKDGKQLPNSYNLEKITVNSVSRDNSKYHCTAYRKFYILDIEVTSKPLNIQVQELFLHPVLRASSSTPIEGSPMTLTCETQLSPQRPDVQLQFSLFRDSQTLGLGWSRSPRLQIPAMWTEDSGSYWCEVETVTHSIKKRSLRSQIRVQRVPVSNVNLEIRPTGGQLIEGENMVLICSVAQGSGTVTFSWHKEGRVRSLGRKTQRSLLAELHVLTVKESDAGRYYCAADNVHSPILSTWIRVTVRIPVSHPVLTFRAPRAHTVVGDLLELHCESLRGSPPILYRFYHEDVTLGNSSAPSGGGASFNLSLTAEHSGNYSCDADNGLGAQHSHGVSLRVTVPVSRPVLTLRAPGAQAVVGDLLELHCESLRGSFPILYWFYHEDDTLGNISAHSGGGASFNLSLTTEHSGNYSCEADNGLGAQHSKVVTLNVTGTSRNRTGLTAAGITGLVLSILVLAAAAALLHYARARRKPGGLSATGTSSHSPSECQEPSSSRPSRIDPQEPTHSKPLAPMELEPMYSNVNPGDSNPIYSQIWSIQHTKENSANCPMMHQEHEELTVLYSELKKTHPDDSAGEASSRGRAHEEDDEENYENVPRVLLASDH

SLAMF9 protein = SLAMF9 protein (UniProt Q96A28 19-236, limits assumed); test: phage clone on SLAMF9 protein
SLAMF9 protein, sequence (Q96A28 19-236 limits assumed): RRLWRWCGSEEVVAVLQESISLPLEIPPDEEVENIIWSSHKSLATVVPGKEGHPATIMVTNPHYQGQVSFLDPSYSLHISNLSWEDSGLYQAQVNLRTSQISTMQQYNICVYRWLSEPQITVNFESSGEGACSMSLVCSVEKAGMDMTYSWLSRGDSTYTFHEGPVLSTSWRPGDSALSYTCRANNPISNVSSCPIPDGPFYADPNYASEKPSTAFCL

[4] = biological target: T4, FcRL4, overexpressed on 3T3 cells (UniProt Q96PJ5 20-515, limits assumed); test: phage clone on 3T3-FcRL4 cells
T4 construct: whole, on cells
T4 sequence (looked up): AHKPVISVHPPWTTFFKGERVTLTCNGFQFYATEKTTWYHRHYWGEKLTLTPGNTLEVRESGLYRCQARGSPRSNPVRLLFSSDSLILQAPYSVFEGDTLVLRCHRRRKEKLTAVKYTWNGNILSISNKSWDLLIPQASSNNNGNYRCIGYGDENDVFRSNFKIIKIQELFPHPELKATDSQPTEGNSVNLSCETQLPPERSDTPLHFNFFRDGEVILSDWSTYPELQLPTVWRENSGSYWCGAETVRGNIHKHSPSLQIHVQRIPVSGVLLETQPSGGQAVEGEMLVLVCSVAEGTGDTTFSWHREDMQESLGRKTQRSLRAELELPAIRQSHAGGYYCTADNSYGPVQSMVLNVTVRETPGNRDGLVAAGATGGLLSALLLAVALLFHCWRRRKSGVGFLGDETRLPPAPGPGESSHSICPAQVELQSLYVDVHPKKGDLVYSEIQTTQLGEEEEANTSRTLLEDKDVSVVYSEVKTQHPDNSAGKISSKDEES

Measured: binding result

B1: ET200-030 (scFv)
scFv: QSVVTQPPSVSGAPGQRVTISCTGSSSNIGAGYDVNWYQQFPGTAPKLLIYGNSNRPSGVPDRFSGSKSGTSASLAITGLQAEDEADYYCQSYDSSLSGSYVFGTGTKVTVLGSRGGGGSGGGGSGGGGSLEMAQMQLVQSGAEVKKPGASVKVSCKASGYTLTELSMHWVRQAPGKGLEWMGGFDPEDGETIYAQKFQGRVTMTEDTSTDTAYMELSSLRSEDTAVYYCARMSSMYYDWGQGTLVTVSSTSGQAGQHHHHHHGAYPYDVPDYAS
notes: screened as phage clone; entry is VL-linker-VH-His tag-HA tag
no binding: all assays above

B2: ET200-002 (scFv)
scFv: NFMLTQPHSVSESPGKTVTISCTRSSGSIASNYVQWYQQRPGSAPTTVIYEDNQRPSGVPDRFSGSIDSSSNSASLTISGLKTEDEADYYCQSYDSSNSVVFGGGTKLTVLGSRGGGGSGGGGSGGGGSLEMAQVQLVQSGTEVKKPGASVRVACKASGYPFNKYDINWVRQAPGQGLEWMGGIIPIFRTTNYAQKFQGRVTITADESTSTAYMELSSLRSEDTAVYYCAREWFYWDIWGQGTLVTVSSTSGQAGQHHHHHHGAYPYDVPDYAS
notes: as for B1
no binding: all assays above

B3: ET200-034 (scFv)
scFv: QSVLTQPPSVSGAPGQRVTISCTGSTSNIGAGYDVHWYQQLPGTAPKLLINNNRNRPSGVPDRFSGSKSGTSATLGITGLQTGDEADYYCGTWDGSLTGAVFGGGTKLTVLGSRGGGGSGGGGSGGGGSLEMAEVQLVQSGAEVKKPGSSVKVSCKASGGTFSSYAISWVRQAPGQGLEWMGGIIPIFGTANYAQKFQGRVTITADESTSTAYMELSSLRSEDTAVYYCARGSALDHYDRWGQGTLVTVSSTSGQAGQHHHHHHGAYPYDVPDYAS
notes: as for B1
no binding: all assays above

B4: ET200-031 (scFv)
scFv: SYVLTQPPSVSVAPGKTARITCGGNNIGSKSVHWYQQKPGQAPVLVIYYDSDRPSGIPERFSGSNSGNTATLTISRVEAGDEADYYCQVWDSSSDYVFGTGTKVTVLGSRGGGGSGGGGSGGGGSLEMAEVQLVETGGGLVKPGGSLRLSCAASGFTVSDYYMSWIRQAPGKGLEWISYISGSGNSIYYADSVKGRFTISRDNAKNSLDLQMTSLRAEDTAVYYCARSTKFDYWGQGTLVTVSSTSGQAGQHHHHHHGAYPYDVPDYAS
notes: screened as phage clone; entry is VL-linker-VH-His tag-HA tag; also called ET200-31
no binding: all assays above

B5: ET200-028 (scFv)
scFv: QSVLTQPPAASGTPGQRVTISCSGGVSNIGSGALNWYQQLPGTAPKLLIYSYNQRPSGVSDRFSGSRSATSASLAISGLQSEDEADYYCATWDDSVNGWVFGGGTKLTVLGSRGGGGSGGGGSGGGGSLEMAQVQLVQSGAEVKKPGDSVKVSCKPSGYNFLNYGINWVRQAPGQGLEWMGWISTYTGNTNYAQKLQGRVTFTTDTSTSTAYMEMRSLRSDDTAVYYCARDLYYYEGVDYWGQGTLVTVSSTSGQAGQHHHHHHGAYPYDVPDYAS
notes: as for B1
no binding: all assays above

B6: ET200-032 (scFv)
scFv: LPVLTQPPSASGTPGQRVTISCSGSSSNVGSYTVNWYRQLPGTAPTLLIYNNNQRPSGVPDRFSDSKSGTSASLTISGLQPEDEADYYCAAWDDRLGGYVFGTGTKVTVLGSRGGGGSGGGGSGGGGSLEMAEVQLVQSGAEVKKPGESLKISCKGSGYSFTNYWIGWVRQMPGKGLEWMGIIYPGDSDTRYSPSFQGQVTISADKSISTAYLQWSSLKASDTAMYYCARSTGSSHMSDEWGQGTLVTVSSTSGQAGQHHHHHHGAYPYDVPDYAS
notes: as for B1
no binding: all assays above

B7: ET200-033 (scFv)
scFv: NFMLTQPHSVSESPGKTVTISCTGSSGSIASNYVQWYQQRPGSAPTTVIYEDNQRPSGVPDRFSGSIDSSSNSASLTISGLKTEDEADYYCQSYDSSNHWVFGGGTKLTVLGSRGGGGSGGGGSGGGGSLEMAQVQLQQWGAGLLKPSETLSLTCAVYGGSFSGYYWSWIRQPPGKGLEWIGEITHSGRSNYNPSLKSRVTISVDTSKNQFSLKLSSVTAADTAVYYCARSSIMSDYWGQGTLVTVSSTSGQAGQHHHHHHGAYPYDVPDYAS
notes: as for B1
no binding: all assays above

B8: ET200-029 (scFv)
scFv: QAVLTQPPSVSVAPGKTARVTCGGNNIGSESVHWYQQKPGQAPVLVIYYDTDRPSGIPERFSGSHSGTTATLTISRVEAGDEADYYCQVWDSSRDHVVFGGGTKLTVLGSRGGGGSGGGGSGGGGSLEMAQVQLVQSGGGVVQPGRSLRLSCAASGFTFSSYAMHWVRQAPGKGLEWVAVISYDGSNKYYADSVKGLFTISRDNSKNTLYLQMNSLRAEDTAVYYCARSYFTSGFYDYWGQGTLVTVSSTSGQAGQHHHHHHGAYPYDVPDYAS
notes: as for B1
no binding: all assays above
